Experimental data from US20140243256A1 (ADMINISTRATORS OF THE TULANE EDUCATIONAL FUND, published 2014).

Target: T1, Pichinde virus (PICV) glycoprotein spikes on purified virus (Pichinde virus (CoAn 3739), UniProt P03540 59-273; P03540 2-58)
T1 construct: also called monomeric or oligomeric glycoproteins; GPC
T1 sequence 1: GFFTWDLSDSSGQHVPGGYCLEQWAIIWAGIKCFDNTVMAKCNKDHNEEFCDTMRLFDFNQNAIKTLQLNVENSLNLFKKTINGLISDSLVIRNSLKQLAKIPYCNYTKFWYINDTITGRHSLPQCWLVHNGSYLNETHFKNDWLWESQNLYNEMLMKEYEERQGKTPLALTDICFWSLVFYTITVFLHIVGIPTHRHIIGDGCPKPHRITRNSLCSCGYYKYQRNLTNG
T1 sequence 2: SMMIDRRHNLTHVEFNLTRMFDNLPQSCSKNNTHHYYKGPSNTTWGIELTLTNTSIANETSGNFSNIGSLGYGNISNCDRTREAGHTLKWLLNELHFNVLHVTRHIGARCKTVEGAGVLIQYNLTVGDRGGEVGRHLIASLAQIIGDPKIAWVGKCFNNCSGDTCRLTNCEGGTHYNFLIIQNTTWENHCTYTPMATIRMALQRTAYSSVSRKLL
T1 sequence 3: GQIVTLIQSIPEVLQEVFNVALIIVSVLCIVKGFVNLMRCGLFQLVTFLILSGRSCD
Test: glutaraldehyde crosslinking of PICV with peptide

## LNLFKKTINGLISDSLVIR (TAMRA conjugated (position of the dye not stated), also called TAMRA-peptide) [TAMRA-conjugated Peptide 1]
  binding result: no binding
